Measurements: patent US20220233697A1 (ACCELERON PHARMA, published 2022)

Target: T1, activin A (UniProt P08476 311-426)
T1 construct: also called ActA
T1 sequence (looked up): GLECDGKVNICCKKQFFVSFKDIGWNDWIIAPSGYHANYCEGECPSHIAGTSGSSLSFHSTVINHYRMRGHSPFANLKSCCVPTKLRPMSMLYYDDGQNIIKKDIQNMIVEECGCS
Test: Biacore, ligand coupled, receptor flowed (table reproduced from WO2006/012627)

binding result: binds
B1: Soluble ActRIIB-Fc K55A (Fc fusion, UniProt Q13705 19-119, looked up)
chain: SGRGEAETRECIYYNANWELERTNQSGLERCEGEQDARLHCYASWANSSGTIELVKKGCWLDDFNCYDRQECVATEENPQVYFCCCEGNFCNERFTHLPEA
notes: not shown: Fc domain, not specified
